Test results published in patent US20230135723A1, “ANTI-CD98 ANTIBODIES AND ANTIBODY DRUG CONJUGATES” (AbbVie Inc., priority 2016, published 2023).
Residue numbers refer to the chain shown, from its start. Marks after values point to notes of the source that are not given here.

B1: Ab3-CZ (conjugate)
VH: EVKLVESGGGLVQPGNSLRLSCATSGFTFIDYYMSWVRQSPGKALEWLGFIRNKANGYTTEYSASVKGRFTISRDNSQSILYLQMDTLRAEDSATYYCTRDRPAWFVYWGQGTLVTVSA
VL: DIVMSQSPSSLAVSVGEKVTMSCKSSQSLLYSSNQKNYLAWYQQKPGQSPKLLIYWASTRESGVPDRFTGSGSGTDFTLTFSSVRAEDLAVYYCQQYYSYPYTFGGGTKLEIK
B2: Ab5-CZ (conjugate)
VH: EVKLVESGGGLVQPGGSLRLSCATSGFTFTDYYMTWVRQPPGKALEWLGFIRNKANGYTTEYSASVKGRFTISRDNSLSILYLQMNTLRAEDSATYYCARASYVNSEGWFAYWGQGTLVTVSA
VL: B1 VL with P46L, F81I, R85K, Q96H, Y102R
B3: ChAb3- CZ-DAR2 (conjugate)
VH: B1 VH
VL: B1 VL
B4: ChAb3- CZ-DAR4 (conjugate)
VH: B1 VH
VL: B1 VL
B5: ChAb3- CZ-Broad DAR (conjugate)
VH: B1 VH
VL: B1 VL
B6: ChAb11-CZ (conjugate)
VH: EVQLVESGGGLVQPGRSLKLSCAASGFTFSDYAMAWVRQAPKKGLEWVAGIIYDGRGTYYRDSVKGRFTISRDNAKSTLYLQMDSLRSEDTATYYCARQGDGTYYYWGYFDYWGQGVMVTVSS
VL: DIVMTQSPSSLAVSAGETVTINCRSSQSLLSSGNQKNYLAWYQQKPGQSPKLLIYWASTRQSGVPDRFIGSGSGTDFTLTISSVQAEDLAIYYCQQYYDTPYTFGAGTKLELK
B7: ChAb12-CZ (conjugate)
VH: B6 VH with G50S, Y109S
VL: B6 VL with R24K, Y93H
B8: ChAb13-CZ (conjugate)
VH: QVQLKESGPGLVQPSQTLSLTCTVSGFSLSSYGVIWVRQPPGKGLEWMGIIWANGNTNYNSALKSRLSISRDTSKSQVYLKMNSLQTEDTATYYCARHYYDGTHYYGYFDYWGQGVMVTVSS
VL: DTVMTQTPSSQAVSAGEKVTMSCKSSQSLLYSENKKKYLAWYQQKPGQSPKLLIYWASTRESGVPDRFIGSGSGTDFTLTISSVQAEDLAVYYCQQYYNFPYTFGAGTKLELK
B9: ChAb15-CZ (conjugate)
VH: B6 VH with A33T, G50T, G100S
VL: B6 VL with R24K, S31F, S82R, T100S
B10: ChAb3-CZ (conjugate)
VH: B1 VH
VL: B1 VL
B11: ChAb5-CZ (conjugate)
VH: B2 VH
VL: B1 VL with P46L, F81I, R85K, Q96H, Y102R
B12: ChAb8-CZ (conjugate)
VH: B6 VH with G50S
VL: B6 VL with R24K, S82N

Key:
[1] = tested on: NCI-H146 (human small cell lung cancer) xenograft; assay: NCI-H146 xenograft tumor growth inhibition; format: in vivo, SCID-bg mice; conditions: for Growth Inhibition TGImax (%): 10 mg/kg/day IP QDx1; for Response Frequency CR (%): 10 mg/kg/day IP QDx1, complete responders; for Response Frequency OR (%): 10 mg/kg/day IP QDx1, overall responders; for Response Frequency PR (%): 10 mg/kg/day IP QDx1, partial responders; for Growth Inhibition TGD (%): 10 mg/kg/day IP QDx1, tumor growth delay to 1 cm^3
Method: The in vivo efficacy of anti-CD98 hybridoma mAb conjugates were tested using Ab3-CZ and Ab5-CZ as examples in NCI-H146 (human small cell lung cancer) xenograft model. The two anti-CD98 hybridoma mAb, Ab3-CZ and Ab5-CZ, were conjugated to the Bcl-xL inhibitor synthon CZ according to Method A. NCI-H146 was obtained from the American Type Culture Collection (ATCC, Manassas, Va.). The cells were cultured as monolayers in RPMI-1640 culture media (Invitrogen, Carlsbad, Calif.) that was supplemented with 10% Fetal Bovine Serum (FBS, Hyclone, Logan, Utah). To generate xenografts, 5×10^6 (NCI-H146) viable cells were inoculated subcutaneously into the right flank of immune deficient female SCID-bg mice (Charles River Laboratories, Wilmington, Mass.). The injection volume was 0.2 mL and composed of Matrigel (BD, Franklin Lakes, N.J.). Tumors were size matched at approximately 212 mm^3. Antibodies and conjugates were formulated in phosphate buffered saline, pH 7.2 and injected intraperitoneally. […] Therapy began within 24 hours after size matching of the tumors. Mice weighed approximately 21 g at the onset of therapy. Tumor volume was estimated two to three times weekly. Measurements of the length (L) and width (W) of the tumor were taken via electronic caliper and the volume was calculated according to the following equation: V=L×W^2/2. Mice were euthanized when tumor volume reached 3,000 mm^3 or skin ulcerations occurred. Eight mice were housed per cage. Food and water were available ad libitum. Mice were acclimated to the animal facilities for a period of at least one week prior to commencement of experiments. Animals were tested in the light phase of a 12-hour light: 12-hour dark schedule (lights on at 06:00 hours). Anti-CD98 conjugates (10 mg/kg) were administered as a single dose (QD×1) intraperitoneally. A human IgG control antibody (MSL109, a humanized IgG1 antibody that binds to cytomegalovirus (CMV) glycoprotein H) was used as a negative control agent.
To refer to efficacy of therapeutic agents, parameters of amplitude (TGImax), durability (TGD) and response frequency (CR, PR, OR) of therapeutic response are used. The efficacy of inhibition of NCI-H146 xenografts growth with CD98-targeted ADCs is illustrated by Table 6, below. In the tables, to refer to efficacy, parameters of amplitude (TGImax) and durability (TGD) of therapeutic response are used. TGImax is the maximum tumor growth inhibition during the experiment. Tumor growth inhibition is calculated by 100*(1−Tv/Cv) where Tv and Cv are the mean tumor volumes of the treated and control groups, respectively. TGD or tumor growth delay is the extended time of a treated tumor needed to reach a volume of 1 cm^3 relative to the control group. TGD is calculated by 100*(Tt/Ct−1) where Tt and Cr are the median time periods to reach 1 cm^3 of the treated and control groups, respectively. Distribution of the response amplitude in a specific group is given by the frequency of complete responders (CR), partial responders (PR), and overall responders (OR). CR is the percentage of mice within a group with a tumor burden of 25 mm^3 for at least three measurements. PR is the percentage of mice within a group with a tumor burden larger than 25 mm^3 but less than one-half of the volume at onset of treatment for at least three measurements. OR is the sum of CR and PR.

[2] = Percent aggregates of ADC by size exclusion chromatography; format: physicochemical; conditions: chAb3-CZ DAR2, DAR4 and broad DAR species (Table 12)
Text: Procedures for DAR and percent aggregate determination are described above in Example 5.

[3] = tested on: EBC-1 (human lung squamous cell carcinoma) xenograft; assay: EBC-1 xenograft tumor growth inhibition; format: in vivo; conditions: 10 mg/kg/day IP QDx1, SCID-bg mice

| Molecule | Growth Inhibition TGImax (%) [1] | Response Frequency CR (%) [1] | Response Frequency OR (%) [1] | Response Frequency PR (%) [1] | Growth Inhibition TGD (%) [1] | % Aggregates by SEC [2] | Growth Inhibition TGD (%) [3] | Growth Inhibition TGImax (%) [3] | Response Frequency CR (%) [3] | Response Frequency OR (%) [3] | Response Frequency PR (%) [3] |
| --- | --- | --- | --- | --- | --- | --- | --- | --- | --- | --- | --- |
| MSL109: "a humanized IgG1 antibody that binds to cytomegalovirus (CMV) glycoprotein H", "used as a negative control agent" [reference compound] | 0% | 0% | 0% | 0% | 0% | – | – | – | – | – | – |
| B1 | 79* % | 0% | 50% | 50% | 81* % | – | – | – | – | – | – |
| B2 | 76* % | 0% | 0% | 0% | 76* % | – | – | – | – | – | – |
| B3 | – | – | – | – | – | 0.5% | 32* % | 55* % | 0% | 0% | 0% |
| B4 | – | – | – | – | – | 13.8% | – | – | – | – | – |
| B5 | – | – | – | – | – | 12.2% | – | – | – | – | – |
| B6 | – | – | – | – | – | – | 37* % | 55* % | 0% | 0% | 0% |
| B7 | – | – | – | – | – | – | 74* % | 76* % | 0% | 25% | 25% |
| B8 | – | – | – | – | – | – | 47* % | 61* % | 0% | 0% | 0% |
| B9 | – | – | – | – | – | – | 74* % | 70* % | 0% | 0% | 0% |
| B10 | – | – | – | – | – | – | 37* % | 54* % | 0% | 0% | 0% |
| B11 | – | – | – | – | – | – | 61* % | 70* % | 0% | 0% | 0% |
| B12 | – | – | – | – | – | – | 42* % | 56* % | 0% | 0% | 0% |
